# Experimental data from patent US12258605B2, “Alkane oxidation by modified hydroxylases” (The California Institute of Technology, priority 2005, dated 2025).
# Residue numbers refer to the chain shown, from its start. Numbers in names are those of the source. Where two headings read alike, the source gives them in different places.
# B1: 35-E11: P450 BM-3 variant, SEQ ID NO:7: 53-5H substitutions plus E464G and I710T (protein)
# chain: TIKEMPQPKTFGELKNLPLLNTDKPVQALMKIADELGEIFKFEAPGCVTRYLSSQRLIKEACDESRFDKNLSQALKFFRDFSGDGLFTSWTHEINWKKAHNILLPSFSQQAMKGYHAMMVDIAVQLVQKWERLNADEHIEVSEDMTRLTLDTIGLCGFNYRFNSFYRDQPHPFIISMVRALDEVMNKLQRANPDDPAYDENKRQCQEDIKVMNDLVDKIIADRKARGEQSDDLLTQMLNGKDPETGEPLDDGNISYQIITFLIAGHETTSGLLSFALYFLVKNPHVLQKVVEEAARVLVDPVPSYKQVKQLKYVGMVLNEALRLWPTFPAFSLYAKEDTVLGGEYPLEKGDEVMVLIPQLHRDKTIWGDDVEEFRPERFENPSAIPQHAFKPFGNGQRACIGQQFALHEATLVLGMMLKHFDFEDHTNYELDIKETLTLKPEGFVVKAKSKKIPLGGIPSPSTGQSAKKVRKKAENAHNTPLLVLYGSNMGTAEGTARDLADIAMSKGFAPQVATLDSHAGNLPREGAVLIVTASYNGHPPDNAKQFVDWLDQASADEVKGVRYSVFGCGDKNWATTYQKVPAFIDETLAAKGAENIADRGEADASDDFEGTYEEWREHMWSDVAAYFNLDIENSEDNKSTLSLQFVDSAADMPLAKMHGAFSTNVVASKELQQPGSARSTRHLEIELPKEASYQEGDHLGVIPRNYEGTVNRVTARFGLDASQQIRLEAEEEKLAHLPLAKTVSVEELLQYVELQDPVTRTQLRAMAAKTVCPPHKVELEALLEKQAYKEQVLAKRLTMLELLEKYPACEMKFSEFIALLPSIRPRYYSISSSPRVDEKQASITVSVVSGEAWSGYGEYKGIASNYLAELQEGDTITCFISTPQSEFTLPKDPETPLIMVGPGTGVAPFRGFVQARKQLKEQGQSLGEAHLYFGCRSPHEDYLYQEELENAQSEGIITLHTAFSRMPNQPKTYVQHVMEQDGKKLIELLDQGAHFYICGDGSQMAPAVEATLMKSYADVHQVSEADARLWLQQLEEKGRYAKDVWAG
# modifications: mutant P450 35-E11 protein sequence
# B2: P450PMO: P450 BM-3 variant, SEQ ID NO:125; 7-7 plus G443A and D698G; propane monooxygenase (protein)
# chain: B1 chain with L52I, A74E, S82G, L188P, I366V, G443A, D698G
# modifications: Mutant P450PMO protein sequence
# notes: 7-7 plus G443A and D698G; propane monooxygenase
# B3: Wild-type BM-3: wild-type cytochrome P450 BM-3 from Bacillus megaterium, SEQ ID NO:1 (protein, listed as Bacillus megaterium)
# chain: TIKEMPQPKTFGELKNLPLLNTDKPVQALMKIADELGEIFKFEAPGRVTRYLSSQRLIKEACDESRFDKNLSQALKFVRDFAGDGLFTSWTHEKNWKKAHNILLPSFSQQAMKGYHAMMVDIAVQLVQKWERLNADEHIEVPEDMTRLTLDTIGLCGFNYRFNSFYRDQPHPFITSMVRALDEAMNKLQRANPDDPAYDENKRQFQEDIKVMNDLVDKIIADRKASGEQSDDLLTHMLNGKDPETGEPLDDENIRYQIITFLIAGHETTSGLLSFALYFLVKNPHVLQKAAEEAARVLVDPVPSYKQVKQLKYVGMVLNEALRLWPTAPAFSLYAKEDTVLGGEYPLEKGDELMVLIPQLHRDKTIWGDDVEEFRPERFENPSAIPQHAFKPFGNGQRACIGQQFALHEATLVLGMMLKHFDFEDHTNYELDIKETLTLKPEGFVVKAKSKKIPLGGIPSPSTEQSAKKVRKKAENAHNTPLLVLYGSNMGTAEGTARDLADIAMSKGFAPQVATLDSHAGNLPREGAVLIVTASYNGHPPDNAKQFVDWLDQASADEVKGVRYSVFGCGDKNWATTYQKVPAFIDETLAAKGAENIADRGEADASDDFEGTYEEWREHMWSDVAAYFNLDIENSEDNKSTLSLQFVDSAADMPLAKMHGAFSTNVVASKELQQPGSARSTRHLEIELPKEASYQEGDHLGVIPRNYEGIVNRVTARFGLDASQQIRLEAEEEKLAHLPLAKTVSVEELLQYVELQDPVTRTQLRAMAAKTVCPPHKVELEALLEKQAYKEQVLAKRLTMLELLEKYPACEMKFSEFIALLPSIRPRYYSISSSPRVDEKQASITVSVVSGEAWSGYGEYKGIASNYLAELQEGDTITCFISTPQSEFTLPKDPETPLIMVGPGTGVAPFRGFVQARKQLKEQGQSLGEAHLYFGCRSPHEDYLYQEELENAQSEGIITLHTAFSRMPNQPKTYVQHVMEQDGKKLIELLDQGAHFYICGDGSQMAPAVEATLMKSYADVHQVSEADARLWLQQLEEKGRYAKDVWAG
# Key:
# [1] = T50 determination (heat inactivation of CO-binding); format: physicochemical
# Experimental: T50 determination. A solution of purified enzyme (1-3 μM) in 100 mM KPi pH 8.0 buffer was transferred on a PCR 96-well plate and incubated for 10 minutes at different temperatures (from 37° C. to 60° C.) in a PCR thermocycler. The plate was then cooled on ice, centrifuged at 1500 g for 10 min. 160 μL of the protein solution was then transferred on a 96-well microtiter plate with 40 μL of sodium hydrosulfite 0.1 M in 1 M KPi pH 8.0. A protein sample incubated at room temperature and one incubated on ice were included in the series. Concentration of folded protein was then determined by measuring CO-binding difference spectra using absorption at 450 and 490 nm and extinction coefficient ε450-490=91,000 M^−1 cm^−1. CO-binding signals were normalized to protein concentration of the sample incubated at 4° C. T50 values were calculated as midpoint inactivation temperatures from nonlinear fitting to the heat-inactivation curves. Experiments were carried out in triplicate.
# As a first step, we aimed at increasing the thermostability of 35E11 heme domain in order to obtain a more ‘evolvable’ parent. […] To regain stability and allow further evolution, stabilizing mutations, derived from a thermostable peroxygenase, was tested in single and in combination (Table 16). The effect on enzyme's thermostability of each single mutation or combination thereof on thermostability was evaluated by monitoring temperature-dependent inactivation of the enzyme's CO-binding (FIG. 36C). Among 35E11 derivatives, ETS8 was selected as the best candidate for further evolution experiments, in that its higher thermostability (ΔT50=+5.1° C.) was accompanied by only a 20% decrease in propane activity on propane. […]
# T50 values determined from heat-inactivation curves of heme-dependent CO-binding spectral shift show how mutations accumulated during laboratory evolution affected enzyme stability (FIG. 37E) and enable an estimation per-mutation stability penalties for each directed evolution round (FIG. 37F). […]
# [2] = NADPH oxidation rates and coupling for propane hydroxylation (Example 4); format: biochemical; details: propanol formation rate/NADPH oxidation rate
# Experimental: Determination of NADPH oxidation rates. Initial rates of NADPH oxidation were measured using propane-saturated 100 mM KPi pH 8.0 buffer, purified enzyme at 50-200 nM, and a saturating concentration of NADPH (200 μM). The absorbance decrease at 340 nm was monitored at 25° C. in a BioSpec-1601 UV/VIS spectrophotometer (Shimadzu, Columbia, MD) for 1 min. Rates were calculated over the first 20 seconds using NADPH extinction coefficient ε340=6210 M^−1 cm^−1. Rates were determined in triplicate. Coupling values were calculated from the ratio of propanol formation rate to NADPH oxidation rate in the presence of propane.
# Activity on palmitate = format: biochemical
# Experimental: To evaluate the fate of the enzyme's original function, P450PMO activity was tested on the long-chain fatty acids laurate and palmitate.
# [3] = palmitate; cited from earlier work
# [4] = myristate; cited from earlier work
# [5] = palmitic acid; cited from earlier work
# [6] = laurate; cited from earlier work
molecule,measurement,setting,value
B1,T50,"[1]; 10 minutes incubation, midpoint inactivation temperature of CO-binding",43.4 ± 0.6 °C
same,ΔT50,[1]; relative to 35E11,0 °C
same,ΔT50,[1]; stability loss from wild-type to 35E11,−11.6 °C
B2,coupling efficiency for propane hydroxylation,[2],90%
same,hydroxylated fatty acids formed,Activity on palmitate,no detectable amounts of hydroxylated fatty acids
B3,Coupling efficiency,[3],93%
same,catalytic efficiency,[3],6e+07 M⁻¹ s⁻¹
same,Coupling efficiency,[4],88%
same,hydroxylation at the ω-2 position,[5],48%
same,Km,[6],210 µM
same,catalytic efficiency,[6],190000 M⁻¹ s⁻¹
